The results in this text go back to article PMC12090727, “Cell binding, uptake, and infection of influenza A virus using recombinant antibody-based receptors” (Journal of Virology, 2025).

This experiment concerns the target T1, HA-hFc probe: H1N1 A/California/04/2009 HA ectodomain fused to human IgG1 Fc (Influenza A virus A/California/04/2009 …, UniProt C3W5S1).
T1 construct: also called HA-probe; HA-human Fc probe; source: High Five insect cells (recombinant baculovirus), purified (HiTrap Protein G); not shown: Fc (human IgG1), C-terminal, kept
Description: flow cytometry on cells. Particulars: one partner purified. A general note: A flow cytometer gives signals particle by particle.

B1: fTfR-5J8 (Flag+) mutant D100bL (scFv, V domains shown)
VH: EVQLVESGPGLVKPSDILSLTCAVSGYSISSNYYWGWIRQPPGKGLEWIGSIYHSGSTYYKPSLESRLGISVDTSKNQFSLKLSFVSAADTAVYYCARHVRSGYPLTAYYFDKWGQGTLVTVSS
VL: SYVLTQPPSVSVAPGETARISCGGNNIGTKVLHWYQQTPGQAPVLVVYDDSDRPSGIPERFSGSNSGNTATLTISRVEVGDEADYYCQVWDISTDQAVFGGGTKLTVL
notes: also called D100bLeu
Turning to B1, the binding result is recorded as “binds”.
